From patent US20200239570A1 (CRESCENDO BIOLOGICS, published 2020)

T1: mouse PD1 (R&D Systems cat no. 1021-PD) (mouse, UniProt Q02242 25-167)
T1 construct: bought recombinant protein; also called mouse PD-1 protein
T1 sequence (looked up): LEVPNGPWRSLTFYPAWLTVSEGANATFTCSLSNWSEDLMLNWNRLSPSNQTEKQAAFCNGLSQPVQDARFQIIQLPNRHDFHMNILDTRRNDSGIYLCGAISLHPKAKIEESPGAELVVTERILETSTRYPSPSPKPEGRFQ


Columns and labels:
[1] = molecular target: T2, recombinant human PD-1 Fc chimera (human, UniProt Q15116 25-167); assay: SPR (Biacore T200), PD-1-huFc amine-coupled to CM5, single cycle kinetics, 1:1 fit
T2 construct: Bought (R&D 1086-PD); Labelled with europium cryptate in the PD-L2 HTRF assay; also called human PD-1 (R&D Systems cat no. 1086-PD); human PD-1-huFc; not shown: human Fc of the bought chimera
T2 sequence (Q15116 25-167, change not shown): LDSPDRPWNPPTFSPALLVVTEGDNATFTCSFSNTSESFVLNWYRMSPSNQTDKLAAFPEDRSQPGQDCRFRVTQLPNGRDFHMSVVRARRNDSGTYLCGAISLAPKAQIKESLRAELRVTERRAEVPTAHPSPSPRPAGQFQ
Protocol: Binding kinetics of certain VH single domain antibodies binding to human PD-1-huFc were measured by surface plasmon resonance (SPR) technology using Biacore T200 instrument (GE Healthcare). Recombinant human PD-1-huFc was immobilized by standard amine coupling to CM5 sensorschip (GE Healthcare) using 0.01 mg/ml solution of antigen in 10 mM sodium acetate at pH 5.5. For the reference flow cell, a blank immobilisation was carried out. Single cycle kinetics assays were used to study the interaction, a five point, three-fold dilution series of each Humabody® was made with a top concentration of 30 nM. The binding kinetics were followed by flowing the Humabody® over the chip surface in HBS EP+ buffer at a flow rate of 30 μl/min. The contact time for each of the association steps was 180 seconds and the dissociation step was varied between 1200-3600 seconds. The data was fitted to a 1:1 binding model after double reference subtraction using the Biacore T200 Evaluation software.

[2] = molecular target: T3, human PD-1 expressed on cells (CHO human PD-1 cells) (human, UniProt Q15116 21-288); assay: FMAT epitope competition on CHO human PD-1 cells; competitor 2 nM 1.1-Strep tagged protein
T3 construct: CHO cells in the FMAT assays; Jurkat reporter cells in the reporter assay; primary CD4+ T cells in the mixed lymphocyte reaction; also called CHO TREX human PD1 cell line; CHO PD-1
T3 sequence (Q15116 21-288): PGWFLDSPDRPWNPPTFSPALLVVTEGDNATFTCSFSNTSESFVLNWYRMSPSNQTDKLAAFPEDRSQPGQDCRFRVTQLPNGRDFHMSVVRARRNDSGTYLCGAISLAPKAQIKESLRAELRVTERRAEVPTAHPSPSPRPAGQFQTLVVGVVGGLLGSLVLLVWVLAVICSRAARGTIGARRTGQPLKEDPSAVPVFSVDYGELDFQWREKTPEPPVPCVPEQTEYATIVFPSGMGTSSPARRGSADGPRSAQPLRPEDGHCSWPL
Protocol: (§1) For the epitope competition assay reagents were prepared in FMAT assay buffer. […] Plates were incubated for a minimum of 1.5 hours at room temperature then fluorescence measured in the FL2 (502 nm-537 nm) and FL5 (677-800 nm) channels on the Mirrorball plate reader (TTP) following excitation at 488 nm and 640 nm. Data was expressed as a % of the total binding control (i.e. % control) after subtraction of the background signal determined from the non-specific binding control wells.

[3] = molecular target: T2, recombinant human PD-1 Fc chimera; assay: BLI (Octet), PD-1-huFc on biosensor, 1:1 fit
Protocol: Binding kinetics of clones to human PD-1-huFc were measured in real-time bio-layer interferometer based biosensor Octet (ForteBio). Recombinant human PD-1-huFc was either immobilized by standard amine coupling to amine reactive biosensors in 10 mM sodium acetate at pH 5.0 or capture by protein G biosensors (ForteBio). All the binding studies were performed in HBS-ET Octet kinetics buffer. Biosensors were always washed in Octet kinetics buffer in between different steps. A seven point, two-fold dilution series of each Humabody® VH was made with a top concentration in range 100-30 nM. The contact time for each of the association steps was varied between 180-300 seconds and the dissociation step was varied between 400-600 seconds. Kinetic association (kₐ) and dissociation (kd) rate constants were determined by processing and fitting the data to a 1:1 binding model using ForteBio Analysis software.

[4] = molecular target: T1, mouse PD1 (R&D Systems cat no. 1021-PD); assay: HTRF binding assay, 2 nM mouse PD-1
[5] = molecular target: T3, human PD-1 expressed on cells (CHO …); assay: FMAT, His-tagged VH on CHO human PD-1 cells
[6] = molecular target: T2, recombinant human PD-1 Fc chimera; assay: HTRF binding assay, His-tagged VH on 2 nM recombinant PD-1
Protocol: (§2) Purified VH were tested for their ability to bind to human PD-1 (R&D Systems cat no. 1086-PD), cynomolgus PD-1 (Acro Biosystems cat no. PD1-C5254) and mouse PD1 (R&D Systems cat no. 1021-PD) in an HTRF Binding assay format. All reagents and serially diluted VH were prepared in assay buffer containing PBS, 0.1% BSA and 0.4M Potassium Fluoride. Samples or assay buffer (non-specific binding) were incubated with 2 nM human/cynomolgus or mouse PD-1, 1 nM Anti human-Fc Cryptate PAb (Cisbio cat. no. 61HFCKLB) and 30 nM anti His-D2 (CisBio cat no 61HISDLA) in black 384-shallow well assay plates for a minimum of 3 hours at room temperature. Time-resolved fluorescent emission at 620 nm and 665 nm was measured following excitation at 337 nm on the BMG PHERAstar plate reader. The HTRF ratio were calculated ((665 nm emission/620 nm emission)*10000) and the data corrected for (non-specific binding) to give the specific binding signal.

[7] = molecular target: T4, cynomolgus PD-1 (Acro Biosystems cat no. PD1-C5254) (cynomolgus, UniProt B0LAJ3 25-170); assay: as above
T4 construct: bought recombinant protein; also called cyno PD-1; cynomolgus PD-1 recombinant protein; not shown: Human Fc tag of the vendor's construct, and any linker to it; The Fc is implied by detection with anti human-Fc cryptate
T4 sequence (B0LAJ3 entry or part of it limits assumed): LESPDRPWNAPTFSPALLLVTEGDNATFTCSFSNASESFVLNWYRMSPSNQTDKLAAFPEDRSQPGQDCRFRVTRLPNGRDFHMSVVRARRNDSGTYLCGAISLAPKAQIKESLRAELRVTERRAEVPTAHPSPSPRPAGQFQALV
Protocol: as §2

[8] = molecular target: T3, human PD-1 expressed on cells (CHO …); assay: FMAT epitope competition on CHO human PD-1 cells; competitor 2 nM 2.1-Strep tagged protein
Protocol: as §1

Kd [1] [nM]	koff [1] [s⁻¹]	kon [1] [M⁻¹ s⁻¹]	IC50 [2] [nM]	Kd [3] [nM]	koff [3] [s⁻¹]	kon [3] [M⁻¹ s⁻¹]	Binder	further results
7.94	0.00211	265000	8	–	–	–	Humabody VH 1.26 (VHH, human VH single domain antibody) VHH: EVQLVESGGGLVQPGRSLRLSCAASGFTFDDYAMHWVRQAPGKDLEWVSGISWNGGSMGYADSVKGRFTISRDNAKNSLYLQMNSLRAEDTALYYCVREKGPGLTGSTADYYGLDAWGQGTMVTVSS	–
–	–	–	7.5	5.5	0.0013	240000	Humabody VH 1.37 (VHH, human VH single domain antibody) VHH: EVQLVESGGGLVQPGRSLRLSCAASGFTFDDYAFHWVRQAPGKDLEWVSGISWNGGSMGYADSVKGRFTISRDNAKNSLYLQMNSLRAEDTALYYCVREKGPGLTGSTADYYGLDAWGQGTMVTVSS	–
14.3	0.00229	160000	–	–	–	–	Humabody VH 1.50 (VHH, human VH single domain antibody) VHH: EVQLVESGGGLVQPGRSLRLSCAASGFTFDDYAFHWVRQAPGKDLEWVSGISWNAGSQGYADSVKGRFTISRDNAKNSLYLQMNSLRAEDTALYYCVREKGPGLTGSTADYYGLDAWGQGTMVTVSS	–
5.98	0.00145	243000	–	–	–	–	Humabody VH 1.40 (VHH, human VH single domain antibody) VHH: EVQLVESGGGLVQPGRSLRLSCAASGFTFDDYALHWVRQAPGKDLEWVSGISWNGGSQGYADSVKGRFTISRDNAKNSLYLQMNSLRAEDTALYYCVREKGPGLTGSTADYYGLDAWGQGTMVTVSS	–
–	–	–	2.5	2	0.00074	370000	Humabody VH 1.33 (VHH, human VH single domain antibody) VHH: EVQLVESGGGLVQPGRSLRLSCAASGFTFDDYAMHWVRQAPGKDLEWVSGISWNGGSYGYADSVKGRFTISRDNAKNSLYLQMNSLRAEDTALYYCVREKGPGLTGSTADYYGLDAWGQGTMVTVSS	–
9.1	0.00204	224000	–	–	–	–	Humabody VH 1.44 (VHH, human VH single domain antibody) VHH: EVQLVESGGGLVQPGRSLRLSCAASGFTFDDYALHWVRQAPGKDLEWVSGISWNSGSYGYADSVKGRFTISRDNAKNSLYLQMNSLRAEDTALYYCVREKGPGLTGSTADYYGLDAWGQGTMVTVSS	–
10.2	0.00254	248000	–	–	–	–	Humabody VH 1.47 (VHH, human VH single domain antibody) VHH: EVQLVESGGGLVQPGRSLRLSCAASGFTFDDYAFHWVRQAPGKDLEWVSGISWNSGSYGYADSVKGRFTISRDNAKNSLYLQMNSLRAEDTALYYCVREKGPGLTGSTADYYGLDAWGQGTMVTVSS	–
16.2	0.00291	180000	–	–	–	–	Humabody VH 1.48 (VHH, human VH single domain antibody) VHH: EVQLVESGGGLVQPGRSLRLSCAASGFTFDDYALHWVRQAPGKDLEWVSGISWNSGSQGYADSVKGRFTISRDNAKNSLYLQMNSLRAEDTALYYCVREKGPGLTGSTADYYGLDAWGQGTMVTVSS	–
–	–	–	6.5	3.6	0.0007	190000	Humabody VH 1.34 (VHH, human VH single domain antibody) VHH: EVQLVESGGGLVQPGRSLRLSCAASGFTFDDYAMHWVRQAPGKDLEWVSGISWNGGSQGYADSVKGRFTISRDNAKNSLYLQMNSLRAEDTALYYCVREKGPGLTGSTADYYGLDAWGQGTMVTVSS	–
6.89	0.0385	5.5e+06	–	–	–	–	Humabody VH 2.12 (VHH, human VH single domain antibody) VHH: EVQLVESGGGVVRPGGSLRLSCAASGFTFDDYAMSWVRQAPGKGLEWVSGITWNAGSTGYADSVKGRFTISRDNAKNSLYLQMNSLRAEDTALYYCVRDKYSYAWSYDDFDIWGQGTMVTVSS	binding result [4]: no binding; EC50 [5]: 1.3 nM; EC50 [6]: 13 nM; EC50 [7]: 18 nM
–	–	–	–	25	0.035	1.3e+06	Humabody VH 2.13 (VHH, human VH single domain antibody) VHH: EVQLVESGGGVVRPGGSLRLSCAASGFTFDDYAMSWVRQAPGKGLEWVSGITWNRGSTGYADSVKGRFTISRDNAKNSLYLQMNSLRAEDTALYYCVRDKYSYAWSYDDFDIWGQGTMVTVSS	–
–	–	–	6.5	3.3	0.0022	670000	Humabody VH 2.52 (VHH, human VH single domain antibody) VHH: EVQLVESGGGVVRPGGSLRLSCAASGFTFDDYAMSWVRQAPGKGLEWVSGITWNGGSTGYADSVKDRFTISRDNAKNSLYLQMNSLRAEDTALYYCVRDKYSYAWSYDVFDIWGQGTMVTVSS	IC50 [8]: 21 nM
–	–	–	–	3.4	0.0015	450000	Humabody VH 2.37 (VHH, human VH single domain antibody) VHH: EVQLVESGGGVVRPGGSLRLSCAASGFTFDDYALSWVRQAPGKGLEWVSGITWNGGSTGYADSVKDRFTISRDNAKNSLYLQMNSLRAEDTALYYCVRDKYSYAWSYDGFDIWGQGTMVTVSS	–
–	–	–	9	–	–	–	Humabody VH 2.27 (VHH, human VH single domain antibody) VHH: EVQLVESGGGVVRPGGSLRLSCAASGFTFDDYAMSWVRQAPGKGLEWVSGITWNAGSTGYADSVKDRFTISRDNAKNSLYLQMNSLRAEDTALYYCVRDKYSYAWSYDDFDIWGQGTMVTVSS	IC50 [8]: 13 nM
–	–	–	7	16	0.017	1e+06	Humabody VH 2.53 (VHH, human VH single domain antibody) VHH: EVQLVESGGGVVRPGGSLRLSCAASGFTFDDYAMSWVRQAPGKGLEWVSGITWNGGSTGYADSVKDRFTISRDNAKNSLYLQMNSLRAEDTALYYCVRDKYSYAWSYDDFDIWGQGTMVTVSS	IC50 [8]: 14 nM
–	–	–	–	1.6	0.00059	370000	Humabody VH 2.39 (VHH, human VH single domain antibody) VHH: EVQLVESGGGVVRPGGSLRLSCAASGFTFDDYAESWVRQAPGKGLEWVSGITWNGGSTGYADSVKDRFTISRDNAKNSLYLQMNSLRAEDTALYYCVRDKYSYAWSYDGFDIWGQGTMVTVSS	–
